Results: patent US20240067740A1 (NOVAROCK BIOTHERAPEUTICS, published 2024)
Where a chain is given by its changes, count along the chain named.

T1: human TNFR2 (Homo sapiens, UniProt P20333 23-461)
T1 construct: also called hTNFR2; TNFRSF1B
T1 sequence: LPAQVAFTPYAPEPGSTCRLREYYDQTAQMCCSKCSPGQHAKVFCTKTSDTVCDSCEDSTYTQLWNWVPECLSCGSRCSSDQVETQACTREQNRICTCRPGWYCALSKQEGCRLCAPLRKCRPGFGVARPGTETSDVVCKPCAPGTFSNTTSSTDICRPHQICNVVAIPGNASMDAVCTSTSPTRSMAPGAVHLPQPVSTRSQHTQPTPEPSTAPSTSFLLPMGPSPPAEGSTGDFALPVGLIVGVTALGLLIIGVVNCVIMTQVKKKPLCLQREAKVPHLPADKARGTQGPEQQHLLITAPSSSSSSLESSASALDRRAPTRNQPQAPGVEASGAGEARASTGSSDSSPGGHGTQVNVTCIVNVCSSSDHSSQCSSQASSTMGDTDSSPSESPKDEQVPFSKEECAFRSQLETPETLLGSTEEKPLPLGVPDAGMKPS

T2: murine TNFR2 (Mus musculus, UniProt P25119 23-474)
T2 construct: Stably overexpressed on HEK293T cells; also called mouse TNFR2
T2 sequence: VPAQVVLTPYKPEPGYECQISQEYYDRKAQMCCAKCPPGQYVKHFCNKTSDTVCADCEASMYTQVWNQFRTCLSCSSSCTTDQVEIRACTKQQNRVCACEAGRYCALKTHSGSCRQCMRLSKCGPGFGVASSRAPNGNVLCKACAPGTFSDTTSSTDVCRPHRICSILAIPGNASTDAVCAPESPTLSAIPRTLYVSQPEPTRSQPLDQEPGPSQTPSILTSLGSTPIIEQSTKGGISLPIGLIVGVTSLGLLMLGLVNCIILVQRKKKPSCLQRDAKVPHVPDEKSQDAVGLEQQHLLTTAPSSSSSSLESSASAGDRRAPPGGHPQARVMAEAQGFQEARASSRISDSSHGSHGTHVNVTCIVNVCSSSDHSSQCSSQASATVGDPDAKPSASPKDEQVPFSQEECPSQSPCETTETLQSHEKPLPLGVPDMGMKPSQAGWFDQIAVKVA

T3: human TNFR1 (Homo sapiens, UniProt P19438 30-455)
T3 construct: Stably overexpressed on CHO-K1 cells; also called TNFRSF1A; p55
T3 sequence: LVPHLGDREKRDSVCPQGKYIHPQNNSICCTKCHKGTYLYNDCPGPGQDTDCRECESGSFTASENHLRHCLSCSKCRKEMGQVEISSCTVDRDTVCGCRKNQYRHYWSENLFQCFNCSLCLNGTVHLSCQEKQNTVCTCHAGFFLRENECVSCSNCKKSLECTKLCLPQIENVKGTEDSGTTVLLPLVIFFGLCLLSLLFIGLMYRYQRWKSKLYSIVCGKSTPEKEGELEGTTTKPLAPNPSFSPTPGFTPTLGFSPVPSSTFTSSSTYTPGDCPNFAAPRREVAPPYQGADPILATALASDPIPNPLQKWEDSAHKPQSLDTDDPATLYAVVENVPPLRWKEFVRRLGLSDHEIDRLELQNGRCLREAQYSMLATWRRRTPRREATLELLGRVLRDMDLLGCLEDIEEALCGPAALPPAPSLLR

T4: cynomolgus TNFR2 (Macaca fascicularis, UniProt P20333 23-461 (human entry))
T4 construct: Stably overexpressed on HEK293T cells; also called cynoTNFR2
T4 chain: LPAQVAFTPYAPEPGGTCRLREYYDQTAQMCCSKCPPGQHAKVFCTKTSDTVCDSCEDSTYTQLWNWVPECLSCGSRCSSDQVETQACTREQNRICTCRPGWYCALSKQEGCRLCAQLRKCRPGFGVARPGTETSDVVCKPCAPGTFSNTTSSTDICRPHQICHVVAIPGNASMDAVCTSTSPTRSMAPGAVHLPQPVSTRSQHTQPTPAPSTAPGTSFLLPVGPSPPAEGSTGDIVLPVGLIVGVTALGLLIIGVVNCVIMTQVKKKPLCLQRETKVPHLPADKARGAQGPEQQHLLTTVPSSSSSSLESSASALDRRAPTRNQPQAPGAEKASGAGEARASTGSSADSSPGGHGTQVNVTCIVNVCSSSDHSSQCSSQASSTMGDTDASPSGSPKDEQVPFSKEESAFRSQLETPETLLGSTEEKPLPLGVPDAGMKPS

B1: R2_mAb-5 (antibody, V domains shown)
VH: QVQLVQSGAEVKKPGASVTVSCKASGYTFSTYGIIWVRQAPGQGLEWMGWISAFNGNANSAQKLQDRVTMTTDTSTSTAYMELRSLRSDDTAVYYCARGEDFFDYWGQGTLVTVSS
VL: DIVMTQTPLSSPVTLGQPASISCRSSQSLVHSDGNTYLSWLQQRPGQPPRLLIYKVSSRFSGVPDRFSGSGAGTDFTLKISRVEAEDVGVYYCTQSTQFPFTFGRGTKLEIK
notes: also called R2-5
B2: R2_mAb-6 (antibody, V domains shown)
VH: QVQLVQSGAEVKKPGASVKVSCKASGYTFLSYGLSWVRQAPGQGLEWMGWINAYNGNTNYAQNLQDRVTMTTDTSTSTAYMELRSLRSDDMAVYYCARWDILTAYYSSDAFDIWGQGTMVTVSS
VL: B1 VL with S39N, S58N, S96T, F101I, R105Q, K108R
notes: also called R2-6
B3: R2_mAb-3 (antibody, V domains shown)
VH: QVQLQESGPGLVKPSETLSLTCTVSGGSISSYYWSWIRQAPGKGLEWIGYIYYSGSTNYNPSLKSRVTISVDTSKNQFSLKLSSVTAADTAVYYCARDDGSSDYGMDVWGQGTTVTVSS
VL: AIQLTQSPSSLSASVGDRVTITCRASQGISSALAWYQQKPGKAPKLLIYDASSLESGVPSRFTGSGTDFTLTISSLQPEDFATYYCQQFNNYMYTFGQGTKLEIK
notes: also called R2-3
B4: R2_mAb-4 (antibody, V domains shown)
VH: QVQLVQSGAEVRKPGASVKVSCKASGYTFTSYSVTWVRQAPGQGLEWMGWINAFSGNTHYAQNLQDRVTMTTDTSTSTAYMELRSLRSDDTAVYYCAREEGSGSYEDYYGMDVWGQGTTVTVSS
VL: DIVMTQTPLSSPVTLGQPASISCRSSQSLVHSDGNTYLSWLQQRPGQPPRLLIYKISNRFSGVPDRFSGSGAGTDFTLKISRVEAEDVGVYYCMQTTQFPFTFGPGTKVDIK
notes: also called R2-4
B5: R2_mAb-1 (antibody, V domains shown)
VH: QVQLVESGGGVVQPGRSLRLSCAASGFTFSSYGMHWVRQAPGKGLEWVAVIWFDEDNKDYADSVKGRFTISRDNSKNTLYLQMSSLRAEDTAVYYCARDNDILTGYYYYYGMDVWGQGTTVTVSS
VL: DIQLTQSPSFLSASVGDRVTITCRASQDISSYLAWYQQKPGKAPKLLIYAASTLQSGVPSRFSGSGSGTEFTLTISSLQPEDFATYYCQQLNSYPPTFGQGTKVEIK
notes: also called R2-1
B6: R2_mAb-2 (antibody, V domains shown)
VH: QVQLVQSGPEVKKPGASVKVSCKASGYTFTNYGISWVRQAPGQGLEWMGWINAYNGNTNYAQKLQGRVTMTTDTSTSTAYMELRSLRSDDTAVYYCARDGGYGSGTYHNDYYYYYGMDVWGQGTTVTVSS
VL: EIVLTQSPDFQSMTPEEKVTITCRASQSIGSNLHWYQQKPDQSPKLLIKFASQSISGVPSRFSGSGSGTDFTLTINSLEAEDAATYYCHQSSSLPFTFGPGTKVDIK
notes: also called R2-2

Biological target: T1, human TNFR2
Assay: flow cytometry on HEK293T cells stably overexpressing human TNFR2, Alexa Fluor 647 secondary antibody
Description: (§1) HEK293T cells stably overexpressing human TNFR2 or CHO-K1 stably overexpressing human TNFR1 were aliquoted in FACS buffer and incubated with serial dilutions of TNFR2 antibody. […] Following an incubation, the reactions were subsequently analyzed by flow cytometry. […] The concentration-response was fitted to a four-parameter logistic non-linear regression model in the GraphPad Prism software to obtain the EC₅₀ values.

Binder | EC50 (read off the curve) [nM]
B1 | ~0.1
B2 | ~0.1
B3 | ~0.4
B4 | ~0.1
B5 | ~0.1
B6 | ~0.3

Biological target: T1, human TNFR2
Assay: image binding assay on adherent HEK293T cells overexpressing human TNFR2 (384-well plate)
Description: as §1

Binder | EC50 (read off the curve) [nM]
B1 | ~0.1
B4 | ~0.2

Biological target: T2, murine TNFR2
Assay: flow cytometry on HEK293T cells stably overexpressing murine TNFR2
Description: (§2) HEK293T cells stably overexpressing human TNFR2, cynomolgus TNFR2, or murine TNFR2 were aliquoted in FACS buffer and incubated with serial dilutions of TNFR2 antibody for 2 hours.
(§3) The concentration-response was fitted to a four-parameter logistic non-linear regression model in the GraphPad Prism software to obtain the EC₅₀ values.

Binder | binding result
B1 | no binding (tested: up to 10 (unit cut off in the text))
B2 | no binding (tested: up to 10 (unit cut off in the text))
B3 | no binding (tested: up to 10 (unit cut off in the text))
B4 | no binding (tested: up to 10 (unit cut off in the text))
B5 | no binding (tested: up to 10 (unit cut off in the text))
B6 | no binding (tested: up to 10 (unit cut off in the text))

Biological target: T3, human TNFR1
Assay: flow cytometry on CHO-K1 cells stably overexpressing human TNFR1
Description: as §1

Binder | binding result
B1 | no binding (tested: up to 10 µg/mL)
B2 | no binding (tested: up to 10 µg/mL)
B3 | no binding (tested: up to 10 µg/mL)
B4 | no binding (tested: up to 10 µg/mL)
B5 | no binding (tested: up to 10 µg/mL)
B6 | no binding (tested: up to 10 µg/mL)

Biological target: T4, cynomolgus TNFR2
Assay: flow cytometry on HEK293T cells stably overexpressing cynomolgus TNFR2
Description: as §2, §3

Binder | binding result
B1 | binds
B2 | binds
B4 | binds
B5 | binds
B6 | binds

Biological target: T1, human TNFR2
Assay: binding to cells stably overexpressing human TNFR2, serial dilutions, flow cytometry or imaging
Description: as §1

Binder | EC50 [nM]
B1 | 0.1
B2 | 0.14
B3 | 0.38
B4 | 0.11
B5 | 0.1
B6 | 0.35
